The text below walks through data of article PMC6596341.

The target in the assay is Aβ42 (human) (UniProt P05067).
Chain of Aβ42 (human) (P05067 672-713): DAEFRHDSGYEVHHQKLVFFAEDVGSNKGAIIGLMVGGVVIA

B1: S100B (natural protein)
chain: MSELEKAMVALIDVFHQYSGREGDKHKLKKSELKELINNELSHFLEEIKEQEVVDKVMETLDNDGDGECDFQEFMAFVAMVTTACHEFFEHE
For B1, the reaction half time (t1/2) of ThT-monitored fibril formation of 5 μM monomeric Aβ42 in the presence of 15 μM S100B, 50 mM Hepes pH 7.4, 1.1 mM CaCl2, 37°C, quiescent (Aβ42 alone t1/2 = 0.8 h) was found to be 2.2 h.
